In FireProtDB (doi:10.1021/ja068849o):

Conditions: Escherichia coli (strain K12); pH 9.2; 37 °C; Urea; Fluorescence; Glycine 10 mM; reversible: Yes; whole UniProt chain shown

B1: Outer membrane protein A wild type, P0A910 (protein)
chain: MKKTAIAIAVALAGFATVAQAAPKDNTWYTGAKLGWSQYHDTGFINNNGPTHENQLGAGAFGGYQVNPYVGFEMGYDWLGRMPYKGSVENGAYKAQGVQLTAKLGYPITDDLDIYTRLGGMVWRADTKSNVYGKNHDTGVSPVFAGGVEYAITPEIATRLEYQWTNNIGDAHTIGTRPDNGMLSLGVSYRFGQGEAAPVVAPAPAPAPEVQTKHFTLKSDVLFNFNKATLKPEGQAALDQLYSQLSNLDPKDGSVVVLGYTDRIGSDAYNQGLSERRAQSVVDYLISKGIPADKISARGMGESNPVTGNTCDNVKQRAALIDCLAPDRRVEIEVKGIKDVVTQPQA
For B1, which denaturant m value is on record?
The denaturant m value was 2.2 kcal/mol/M.

And the “denaturant midpoint (higher = more stable)” value?
Its value is 4.2 M.

What about the unfolding free energy of the same protein?
The unfolding free energy was 9.3 kcal/mol.
